Experiment [1] concerns the target T1, Human CD93 on cells (human CD93 expressing CHO cells; HUVEC, U937 and KG1a cells) (human, UniProt Q9NPY3 22-652).
T1 construct: whole, on cells; also called hCD93 expressing CHO cells; hCD93 CHO cells
T1 sequence (looked up): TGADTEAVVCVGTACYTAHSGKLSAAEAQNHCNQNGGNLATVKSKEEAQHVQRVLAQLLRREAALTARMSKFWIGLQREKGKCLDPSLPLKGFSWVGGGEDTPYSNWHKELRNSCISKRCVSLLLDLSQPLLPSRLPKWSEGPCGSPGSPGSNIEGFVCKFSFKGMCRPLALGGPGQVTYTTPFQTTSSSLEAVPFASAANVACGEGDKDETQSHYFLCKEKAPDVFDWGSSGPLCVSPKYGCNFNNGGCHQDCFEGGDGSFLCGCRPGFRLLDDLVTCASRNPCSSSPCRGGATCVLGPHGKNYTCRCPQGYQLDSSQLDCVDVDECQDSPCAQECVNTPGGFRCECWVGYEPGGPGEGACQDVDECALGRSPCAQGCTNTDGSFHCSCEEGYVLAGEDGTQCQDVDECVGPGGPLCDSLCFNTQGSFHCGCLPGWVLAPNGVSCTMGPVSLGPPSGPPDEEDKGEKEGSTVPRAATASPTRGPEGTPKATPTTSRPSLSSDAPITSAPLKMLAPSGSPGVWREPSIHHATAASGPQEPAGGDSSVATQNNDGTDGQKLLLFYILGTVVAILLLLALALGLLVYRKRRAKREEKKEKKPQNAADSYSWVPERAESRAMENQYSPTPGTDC
In words: summary table, column FACS (CHO-hCD93 cells).

Experiment [2] has as its target T2, Human CD93 recombinant protein (Sino Biological Inc, Catalog #12589-H08H) (human, UniProt Q9NPY3 22-580).
T2 construct: Biotinylated (EZ-LINK NHS-PEG4 biotin) in the BLI assays; also called hCD93; His-tagged human CD93
T2 sequence (looked up): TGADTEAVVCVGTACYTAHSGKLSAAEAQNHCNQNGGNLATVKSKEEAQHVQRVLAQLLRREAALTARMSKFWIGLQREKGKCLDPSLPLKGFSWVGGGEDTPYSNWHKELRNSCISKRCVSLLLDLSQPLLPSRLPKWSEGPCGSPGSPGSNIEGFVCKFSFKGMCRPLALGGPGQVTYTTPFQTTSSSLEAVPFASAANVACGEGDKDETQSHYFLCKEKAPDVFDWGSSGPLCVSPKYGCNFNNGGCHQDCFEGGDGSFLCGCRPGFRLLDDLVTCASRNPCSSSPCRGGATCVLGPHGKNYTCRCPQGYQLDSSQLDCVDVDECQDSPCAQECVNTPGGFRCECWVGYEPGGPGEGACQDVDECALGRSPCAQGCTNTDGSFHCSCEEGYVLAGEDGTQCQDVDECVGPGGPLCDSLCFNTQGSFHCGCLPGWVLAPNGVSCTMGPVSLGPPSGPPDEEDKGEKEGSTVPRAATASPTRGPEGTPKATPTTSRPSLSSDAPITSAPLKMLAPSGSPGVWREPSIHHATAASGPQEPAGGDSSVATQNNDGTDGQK
Description: summary table, column ELISA (hCD93); 4 weeks at 40 C. As to the method:
(§1) His-tagged human CD93 was coated onto a 96 well plate at 1 μg/mL in 1×PBS overnight at 4° C. The plate was washed with ELISA wash buffer (Boston BioProduct, Inc.) and the wells were blocked with ELISA blocking buffer for 1 hour at 37° C. […] The plate was washed with ELISA wash Buffer. HRP-conjugated anti-human Fc antibody was incubated for 1 hour at 37° C. The plate was washed with ELISA wash Buffer. HRP substrate was added for indirect detection of the antibodies binding to CD93.
as §1

The target in experiment [3] is T2, Human CD93 recombinant protein (Sino …). Description: ELISA, His-tagged human CD93 coated, OD450; antibody stored 2 weeks at 40 C. As to the method:
as §1

The target of experiment [4] is T1, Human CD93 on cells (human CD93 …). In words: summary table, column FACS (KG1a cells); 4 weeks at 40 C. The method, then:
(§2) KG1a cells were detached by incubation with TrypLE reagents (Thermo Fisher), which preserves the integrity of CD93 on the cell surface. Then the cells were incubated with serial diluted anti-CD93 antibodies for 30 minutes at 4° C. After washing by FACS buffer, the cells were incubated with Alexa Fluor 647 conjugated anti-human IgG (Jackson ImmunoResearch) for 30 minutes in 4° C. After washing by FACS buffer twice, the samples were acquired in NovoCyte Flow Cytometer and analyzed by NovoExpress software.
as §2

For experiment [5] the target is unchanged. In words: flow cytometry titration, KG1a cells; antibody stored 2 weeks at 40 C. As to the method:
as §2

Experiment [6] concerns the target T2, Human CD93 recombinant protein (Sino …). In words: ELISA, His-tagged human CD93 coated, OD450. The method, then:
as §1

Experiment [7] addresses T1, Human CD93 on cells (human CD93 …). Description: summary table, column FACS (KG1a cells). As to the method:
as §2, §2

The target is the same in experiment [8]. In words: flow cytometry titration, KG1a cells; antibody stored 4 weeks at 40 C. The method, then:
as §2

The target is the same in experiment [9]. In words: summary table, column FACS (CHO-hCD93 cells); 4 weeks at 40 C.
Experiment [10] addresses T2, Human CD93 recombinant protein (Sino …). Description: summary table, column ELISA (hCD93); 2 weeks at 40 C. As to the method:
as §1, §1

In experiment [11] the target is T1, Human CD93 on cells (human CD93 …). In words: summary table, column FACS (CHO-hCD93 cells); 2 weeks at 40 C.

B1: h16E4 (humanized 16E4, VH4+VL6) (antibody, V domains shown)
VH: QVQLVQSGAEVKKPGASVKVSCKASGYTFTSYWMHWVRQAPGQGLEWMGEIDPSASYTYYNQKFKGRVTMTRDKSSSTVYMELSSLTSEDSAVYYCARSVYYGNKYFDVWGAGTTVTVSS
VL: DIQMTQSPSTLSASVGDRVTITCKASQSVDYAGDSYMNWYQQKPGKAPKLLIYAASNLESGVPSRFSGSGSGTEFTLTISSLQPDDFATYYCQQTNEDPRTFGGGTKLEIK
notes: Detected with anti-human IgG, so a human Fc
As for B1, the EC50 turned out to be 0.388 nM in [1]; 0.051 nM in experiment [2]; 0.049 nM in experiment [3]; 0.115 nM in experiment [4]; 0.113 nM in [5]; 0.033 nM in experiment [6]. Besides, the EC50 in experiment [7] turned out to be 0.131 nM; in experiment [8], 0.115 nM; in experiment [9], 0.312 nM; in experiment [10], 0.049 nM; in [11], 0.274 nM.

B2: h7F3 (humanized 7F3, VH3+VL3) (antibody, human IgG1, V domains shown)
VH: QVQLVQSGAEVKKPGASVKVSCKASGYTFTDYEMHWVRQAPGQGLEWMGGIDPETGDTAYNQNFKGRVTMTTDTSTSTAYMELRSLTSDDTAVYYCTNYGNLYYYAMDYWGQGTSVTVSS
VL: EIVLTQSPSSLSASVGDRVTITCRASSSVSSSYLHWYQQKPGKAPKLLIYSTSNLAFGVPSRFSGSGSGTSYTFTISSLQPEDIATYYCQQYSGYPLTFGSGTKLEIK
notes: also called humanized 7F3-hIgG1
Take B2: the EC50 came out at 0.0407 nM in experiment [2]; 0.0413 nM in experiment [3]; 0.019 nM in experiment [4]; 0.021 nM in experiment [5]; 0.0427 nM in [6]; 0.024 nM in experiment [7]. The EC50 in experiment [8] was 0.019 nM; in [9], 0.195 nM; in experiment [10], 0.0413 nM; in [11] it was 0.194 nM.

B3: 16E4 (hybridoma) (antibody, IgG2a, V domains shown)
VH: QVQLQQPGAELVKPGASVKLSCKASGYTFTSYWMHWVKQRPGQGLEWIGEIDPSASYTYYNQKFKGKATLTVDKSSSTAYMQLSSLTSEDSAVYYCARSVYYGNKYFDVWGAGTTVTVSS
VL: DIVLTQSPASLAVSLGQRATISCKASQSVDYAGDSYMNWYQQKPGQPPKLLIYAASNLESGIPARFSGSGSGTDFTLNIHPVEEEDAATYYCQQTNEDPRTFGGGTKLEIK
notes: also called 16E4 mAb; 16E4 mIgG2a
In experiment [1], B3 showed an EC50 of 0.59 nM.
